In test [1] the target is T1, human VEGFR-2 (KDR) expressed on porcine aortic endothelial cells (PAE/KDR) (human, UniProt P35968 20-1356). The test can be described thus: cell-based or functional assay.
Test [2] addresses T1, human VEGFR-2 (KDR) expressed on …. In words: competitive cell binding on PAE/KDR cells. As to the method: (§1) The detailed procedure of competitive cell binding assay has been described herein. VEGFR-1 and VEGFR-2 binding affinity of VEGF₁₂₁, VEGFDEE, and the DOTA conjugates was evaluated by PAE/FLT-1 and PAE/KDR cell binding assays using ¹²⁵I-VEGF₁₆₅ (VEGF₁₆₅ protein (SEQ ID No: 4)) as the radioligand. The best-fit IC₅₀ values were calculated by fitting the data by nonlinear regression using GraphPad Prism (GraphPad Software, Inc.). Experiments were carried out with triplicate samples.
(§2) Two proteins were prepared for this study: VEGF₁₂₁ and the triple mutant at the 63, 64, and 67 positions (VEGFDEE) (FIG. 17). The His-tag containing proteins were purified to homogeneity. Cell binding assay was then carried out to determine the VEGFR-1 and VEGFR-2 binding affinity (FIGS. 18a and 18b).

The target in test [3] is T2, human VEGFR-1 (FLT-1) expressed on porcine aortic endothelial cells (PAE/FLT-1) (human, UniProt P17948 27-1338).
T2 construct: whole, on cells; also called PAE/VEGFR-1 cells; PAE/FLT-1 cells
The test can be described thus: competitive cell binding on PAE/FLT-1 cells. As to the method:
as §1, §2

In test [4] the target is T1, human VEGFR-2 (KDR) expressed on …. The test can be described thus: competitive cell binding on PAE/KDR against PAE/FLT-1 cells. As to the method:
as §1, §2

Test [5] has the same target. In words: competitive cell binding on PAE/KDR cells, 125I-VEGF165 as radioligand. The protocol:
as §1

Test [6] concerns the target T2, human VEGFR-1 (FLT-1) expressed on …. In words: competitive cell binding on PAE/FLT-1 cells, 125I-VEGF165 as radioligand. The protocol: as §1, §2
Test [7] deals with T3, human VEGFR-1 (FLT-1) expressed on porcine aortic endothelial cells (PAE/FLT-1) (human), P17948.
T3 chain: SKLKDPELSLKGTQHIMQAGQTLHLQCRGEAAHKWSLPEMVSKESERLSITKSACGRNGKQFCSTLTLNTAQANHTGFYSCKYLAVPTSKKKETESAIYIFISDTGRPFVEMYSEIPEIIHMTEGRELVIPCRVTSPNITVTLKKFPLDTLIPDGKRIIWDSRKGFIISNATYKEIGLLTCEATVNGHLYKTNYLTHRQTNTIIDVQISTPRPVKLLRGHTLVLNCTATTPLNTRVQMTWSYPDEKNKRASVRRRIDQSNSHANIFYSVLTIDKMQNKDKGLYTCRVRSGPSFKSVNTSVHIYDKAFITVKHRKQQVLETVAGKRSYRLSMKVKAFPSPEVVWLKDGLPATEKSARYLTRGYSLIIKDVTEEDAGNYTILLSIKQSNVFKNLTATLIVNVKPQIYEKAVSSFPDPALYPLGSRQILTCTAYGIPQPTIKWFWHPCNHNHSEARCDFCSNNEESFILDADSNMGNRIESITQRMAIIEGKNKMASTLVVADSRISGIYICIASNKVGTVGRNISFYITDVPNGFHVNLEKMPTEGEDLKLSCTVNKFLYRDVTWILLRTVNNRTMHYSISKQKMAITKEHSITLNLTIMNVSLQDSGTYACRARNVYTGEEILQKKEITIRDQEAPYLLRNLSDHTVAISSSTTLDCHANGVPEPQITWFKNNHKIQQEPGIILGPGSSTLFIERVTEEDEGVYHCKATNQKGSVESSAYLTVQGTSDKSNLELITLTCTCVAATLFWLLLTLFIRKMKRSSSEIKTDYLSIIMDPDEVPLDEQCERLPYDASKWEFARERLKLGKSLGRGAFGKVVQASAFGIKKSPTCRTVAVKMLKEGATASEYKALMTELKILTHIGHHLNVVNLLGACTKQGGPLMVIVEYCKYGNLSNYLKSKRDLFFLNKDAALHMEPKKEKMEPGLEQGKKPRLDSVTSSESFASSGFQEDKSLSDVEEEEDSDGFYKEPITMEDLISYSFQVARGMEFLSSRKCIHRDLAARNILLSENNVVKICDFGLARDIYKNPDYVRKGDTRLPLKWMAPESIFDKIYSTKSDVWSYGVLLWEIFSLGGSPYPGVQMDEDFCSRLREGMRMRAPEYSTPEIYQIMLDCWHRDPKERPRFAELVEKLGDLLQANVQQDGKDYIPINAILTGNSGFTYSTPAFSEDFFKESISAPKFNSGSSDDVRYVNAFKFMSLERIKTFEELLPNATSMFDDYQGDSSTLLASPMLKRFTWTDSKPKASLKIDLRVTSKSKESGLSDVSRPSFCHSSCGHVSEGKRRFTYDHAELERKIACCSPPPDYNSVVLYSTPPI
Described as above. The settings on record: remark: other sources report otherwise.

Test [8] deals with T1, human VEGFR-2 (KDR) expressed on …. The test can be described thus: competitive cell binding on PAE/KDR cells, 125I-VEGF165 as radioligand (Example 2).
In test [9] the target is T4, soluble VEGFR1D1-D6 (sVEGFR1) (Homo sapiens (Human), UniProt P17948 27-687).
T4 construct: Coated on 96-well plates
The test can be described thus: plate-coated sVEGFR1, competition with 125I-VEGF165. As to the method: (§3) Porcine aortic endothelial cells (PAE-KDR cells) stably transfected to express human VEGFR2 (KDR) and porcine aortic endothelial cells (PAE cells) not expressing VEGFR1 and VEGFR2 were cultured in Ham's F-12 medium containing 10% fetal bovine serum (Sigma-Aldrich, Saint Louis, Mo.). Using ¹²⁵I-VEGF₁₆₅ as the radioligand, receptor-binding affinity of VEGF₁₂₁ and VEGFNLS for VEGFR2 was performed as described elsewhere for both PAE-KDR and PAE cells (J Med. Chem. 2005; 48:1098-1106, which is include herein by reference). […] Serially diluted VEGF₁₂₁ or VEGFNLS were then added to compete with the radioligand ¹²⁵I-VEGF₁₆₅. After 2 h incubation at room temperature, the plates were washed and bound ¹²⁵I-VEGF₁₆₅/sVEGFR1 complex was dissociated by acidified 0.1% SDS solution, the eluent was collected and the radioactivity was measured by a gamma counter (Cobra II Auto-Gamma; Perkin-Elmer, Wellesley, Mass.). The best-fit 50% inhibitory concentration (IC₅₀) values were calculated by fitting the data by nonlinear regression using GraphPad Prism 4.0 (GraphPad Software, Inc., San Diego, Calif.). Experiments were performed twice with triplicate samples.

For test [10], the target named is T1, human VEGFR-2 (KDR) expressed on …. In words: competitive cell binding on PAE-KDR cells, 125I-VEGF165 as radioligand. As to the method:
as §3

T1 sequence (P35968 20-1356): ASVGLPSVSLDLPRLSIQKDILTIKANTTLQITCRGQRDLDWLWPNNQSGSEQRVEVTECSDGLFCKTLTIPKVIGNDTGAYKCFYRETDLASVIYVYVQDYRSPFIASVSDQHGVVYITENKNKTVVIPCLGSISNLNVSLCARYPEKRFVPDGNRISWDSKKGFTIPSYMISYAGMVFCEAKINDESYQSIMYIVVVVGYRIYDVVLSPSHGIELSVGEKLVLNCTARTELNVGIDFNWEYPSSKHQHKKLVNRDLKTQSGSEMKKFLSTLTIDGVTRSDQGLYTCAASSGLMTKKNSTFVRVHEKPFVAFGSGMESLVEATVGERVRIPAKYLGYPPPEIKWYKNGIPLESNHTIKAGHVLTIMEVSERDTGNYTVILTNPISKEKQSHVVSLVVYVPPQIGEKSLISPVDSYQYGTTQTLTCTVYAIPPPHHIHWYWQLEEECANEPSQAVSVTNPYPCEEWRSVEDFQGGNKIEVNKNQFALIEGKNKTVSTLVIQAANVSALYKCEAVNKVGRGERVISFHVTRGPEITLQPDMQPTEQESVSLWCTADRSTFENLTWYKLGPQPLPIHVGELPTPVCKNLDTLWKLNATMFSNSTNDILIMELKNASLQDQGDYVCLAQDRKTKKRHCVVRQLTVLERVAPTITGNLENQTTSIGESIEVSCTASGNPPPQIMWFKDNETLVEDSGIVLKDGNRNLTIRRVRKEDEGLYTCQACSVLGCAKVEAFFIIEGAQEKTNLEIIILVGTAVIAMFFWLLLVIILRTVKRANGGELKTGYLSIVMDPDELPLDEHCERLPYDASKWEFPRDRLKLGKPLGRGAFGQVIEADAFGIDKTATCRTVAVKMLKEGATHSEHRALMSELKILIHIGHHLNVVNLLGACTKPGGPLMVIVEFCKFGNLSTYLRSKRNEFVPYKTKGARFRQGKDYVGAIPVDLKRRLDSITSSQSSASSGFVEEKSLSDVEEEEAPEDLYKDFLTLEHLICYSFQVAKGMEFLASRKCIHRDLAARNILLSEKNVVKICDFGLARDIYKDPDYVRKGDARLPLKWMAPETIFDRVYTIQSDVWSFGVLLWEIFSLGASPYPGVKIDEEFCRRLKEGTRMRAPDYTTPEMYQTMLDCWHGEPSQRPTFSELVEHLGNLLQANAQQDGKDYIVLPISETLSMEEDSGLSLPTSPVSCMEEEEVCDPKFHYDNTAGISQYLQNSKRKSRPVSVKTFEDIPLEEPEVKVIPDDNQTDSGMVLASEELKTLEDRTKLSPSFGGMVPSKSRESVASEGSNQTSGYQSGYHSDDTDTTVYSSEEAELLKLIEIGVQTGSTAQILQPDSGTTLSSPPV

B1: VEGFR-2 specific mutant VEGFDEE (D63AE64AE67A mutant of VEGF121) (ligand)
chain: MAPMAEGGGQNHHEVVKFMDVYQRSYCHPIETLVDIFQEYPDEIEYIFKPSCVPLMRCGGCCNAAGLACVPTEESNITMQIMRIKPHQGQHIGEMSFLQHNKCECRPKKDRARQEKCDKPRRGS
notes: also called VEGF121-DEE Mutant; not shown: His-tag
As to B1, in [1], the “functional assay using PAE/KDR cells (FIG. 18e)” value is greater than 5 nM and the “phosphorylated VEGFR-2 (Western blot, PAE/KDR cells)” value is greater than 10 nM. Further, the “fold lower binding affinity against VEGF121” value in [2] was 4 fold. Moreover, the “fold lower binding against VEGF121” value in test [3] is roughly 20 fold. For the same molecule, the “fold higher binding affinity against VEGFR-1” value in test [4] was roughly 7 fold. The IC50 in [5] stood at 11.7 nM. In addition, in test [6], the IC50 was found to be 78.1 nM.

B2: DOTA-VEGFDEE (ligand)
chain: MAPMAEGGGQNHHEVVKFMDVYQRSYCHPIETLVDIFQEYPDEIEYIFKPSCVPLMRCGGCCNAAGLACVPTEESNITMQIMRIKPHQGQHIGEMSFLQHNKCECRPKKDRARQEKCDKPRRGS
modifications: DOTA conjugated; 2.2±0.1 DOTA molecules per monomeric VEGFDEE; sites not stated
notes: DOTA conjugate of m4; not shown: His-tag
B2: in test [1], the “functional assay using PAE/KDR cells (FIG. 18e)” value is greater than 5 nM and the “phosphorylated VEGFR-2 (Western blot, PAE/KDR cells)” value is greater than 10 nM. This molecule gave an IC50 in test [5] of 10.3 nM.

B3: VEGF121 protein (Examples 3 and 5: His-tag containing, expressed from pRSF-Duet1), P15692 207-395 (ligand, not shown: small tags and cut ends)
chain: APMAEGGGQNHHEVVKFMDVYQRSYCHPIETLVDIFQEYPDEIEYIFKPSCVPLMRCGGCCNDEGLECVPTEESNITMQIMRIKPHQGQHIGEMSFLQHNKCECRPKKDRARQEKCDKPRR
B3 yielded an IC50 in test [7] of 4.2 nM.

B4: DOTA-VEGF121 (Examples 1 and 2) (ligand)
chain: APMAEGGGQNHHEVVKFMDVYQRSYCHPIETLVDIFQEYPDEIEYIFKPSCVPLMRCGGCCNDEGLECVPTEESNITMQIMRIKPHQGQHIGEMSFLQHNKCECRPKKDRARQEKCDKPRR
modifications: DOTA conjugated to lysine residues and/or N-terminal amine groups; 4.33±0.24 DOTA per VEGF121
notes: The conjugation sites are not mapped
In the case of B4, the IC50 worked out at 1.66 nM in [5] and 1.59 nM in test [8].

B5: DOTA-VEGF121 (Example 5) (ligand)
chain: APMAEGGGQNHHEVVKFMDVYQRSYCHPIETLVDIFQEYPDEIEYIFKPSCVPLMRCGGCCNDEGLECVPTEESNITMQIMRIKPHQGQHIGEMSFLQHNKCECRPKKDRARQEKCDKPRR
modifications: DOTA conjugated; 2.1±0.1 DOTA molecules per monomeric VEGF121; sites not stated
notes: DOTA conjugate of m3; not shown: His-tag
As to B5, in [1], the “functional assay using PAE/KDR cells (FIG. 18e)” value is greater than 5 nM and the “phosphorylated VEGFR-2 (Western blot, PAE/KDR cells)” value is greater than 10 nM. The molecule further yielded an IC50 in test [5] of 5 nM.

B6: VEGF121 protein (Examples 3 and 5: His-tag containing, expressed from pRSF-Duet1) (ligand)
chain: APMAEGGGQNHHEVVKFMDVYQRSYCHPIETLVDIFQEYPDEIEYIFKPSCVPLMRCGGCCNDEGLECVPTEESNITMQIMRIKPHQGQHIGEMSFLQHNKCECRPKKDRARQEKCDKPRR
notes: No tag removal is described; also called wild type VEGF121; wild-type VEGF121; not shown: His-tag
On to B6, for which, in test [1], the “functional assay using PAE/KDR cells (FIG. 18e)” value is greater than 5 nM and the “phosphorylated VEGFR-2 (Western blot, PAE/KDR cells)” value is greater than 10 nM. In test [9], this molecule registered an IC50 of 4 nM. For the same molecule, the IC50 in test [10] turned out to be 2.9 nM.

B7: VEGF121 protein (Examples 1 and 2: expressed from pET-32, tag removed with enterokinase) (ligand)
chain: APMAEGGGQNHHEVVKFMDVYQRSYCHPIETLVDIFQEYPDEIEYIFKPSCVPLMRCGGCCNDEGLECVPTEESNITMQIMRIKPHQGQHIGEMSFLQHNKCECRPKKDRARQEKCDKPRR
notes: also called unlabeled VEGF121; naive VEGF121
Take B7: the concentration for half-maximal inhibition (IC50) in test [5] came out at 1.02 nM; in [8], 1.11 nM.

The term IC50 denotes the point on the concentration scale where inhibition reaches its midpoint. Low readings indicate inhibition by little substance, high ones a need for much substance.

Source of the values: patent US20080031815A1 (published 2008).
